Source: publication PMC4388654, “A Humanized Leucine Zipper-TRAIL Hybrid Induces Apoptosis of Tumors both In Vitro and In Vivo” (PLoS ONE, 2015)

Molecular target: the molecule itself
Experiment: AUC; sedimentation equilibrium; 0.5, 0.17 and 0.06 mg/ml in PBS, 20°C, 18,000 rpm, 24 h; Monomer-Nmer model (HeteroAnalysis); monomer to trimer

B1: ATF7-pII leucine zipper-TRAIL (ligand, human)
chain: VSSIEKKIEEITSQIIQISNEITLIRNEIAQIKQKGSGQRVAAHITGTRGRSNTLSSPNSKNEKALGRKINSWESSRSGHSFLSNLHLRNGELVIHEKGFYYIYSQTYFRFQEEIKENTKNDKQMVQYIYKYTSYPDPILLMKSARNSCWSKDAEYGLYSIYQGGIFELKENDRIFVSVTNEHLIDMDHEASFFGAFLVG
notes: linker between the leucine zipper and TRAIL; Tumor necrosis factor-Related Apoptosis-Inducing Ligand (TRAIL), human, Gln120-Gly281; No tag is stated; the calculated trimer mass of 69.0 kDa fits zipper + linker + TRAIL 120-281 without a tag; also called ATF7-TRAIL; ATF7 leucine zipper-TRAIL; source: P. pastoris (pGAPZα), secreted, purified (Co2+-metal chelating chromatography, 0 to 25 mM imidazole …)
stoichiometry N: 3
